# Assay results taken from US20220112288A1 (published 2022).
# Positions count from the first letter of the chain named.
# B1: 75110_04B08A (antibody, V domains shown)
# VH: QVQLVESGGGVVQPGRSLRLSCTASGFNFINYGIHWVRQAPGKGLEWVTIIWYDGSKKYYADSVKGRFAISRDNSKNTLYLQMNSLRAEDTAVYYCAREDDWNDGLAYWGQGTLVTVSS
# VL: AIQMTQSPSSLSASVGDRVTITCRASQDIRNDLGWYQQKPGKAPNLLIYAASNLQSGVPSRFSGSGSGTDFTLTISSLQPEDFATYYCLQDSNYPRTFGQGTKVEIK
# notes: Tested here as non-clonal hybridoma supernatant from AlivaMab Mouse Kappa mice (detected with anti-mouse Fc and anti-human kappa)
# B2: 75110_03D16A (antibody, V domains shown)
# VH: EVQLVESGGGLVQPGGSLRLSCAASGFTFSSYWMSWVRQAPGKGLEWVANINQDGGEKYYVDSVKGRFTISRDNAKNSLYLQMNSLRAEDTAVYYCVREGGQWLALDYWGQGTLVTVSS
# VL: DIQMTQSPSSVSASVGDRVTITCRASQGISSWLTWYQQKPGKAPKFLIYAASSLQSGVPSRFSGSGFGTDFTLTISSLQPEDFATYYCQQANSFPWTFGQGTKVEIK
# notes: as for B1
# B3: 75110_01J09A (antibody, V domains shown)
# VH: B2 VH with A23V, I51T, N52K, Q53E, G56S, E57D, S71C, V97A
# VL: B2 VL with T22N, T34A, K45N, F46L, Y49F, A50G, T72S, S76T, S77T, Y87H
# notes: as for B1
# B4: 75110_05L07A (antibody, V domains shown)
# VH: B2 VH with G56S, E57D, A75V, M83I, V97A, A105T
# VL: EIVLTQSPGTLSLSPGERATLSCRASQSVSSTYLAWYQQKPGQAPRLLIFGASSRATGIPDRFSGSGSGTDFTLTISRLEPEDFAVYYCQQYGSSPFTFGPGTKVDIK
# notes: as for B1
# B5: 75110_12H17A (antibody, V domains shown)
# VH: B2 VH with S31D, N52K, Q53E, G56N, Y80F, V97A, T113A
# VL: B2 VL with T34A, Y49S, A50G, S63T, F67S
# notes: as for B1
# B6: 75110_04K10A (antibody, V domains shown)
# VH: B2 VH with G56S, M83L, V93M, V97A, A105S
# VL: B2 VL with T34A, F46V, A50G, A51V, L54F, F67S, T72I
# notes: as for B1
# B7: 75110_09N20A (antibody, V domains shown)
# VH: B2 VH with Q53E, G56S
# VL: B2 VL with T34A, F46L, R61S, F67S, S76N, E105A
# notes: as for B1
# B8: 75110_09G15A (antibody, V domains shown)
# VH: B2 VH with S31D, G56S, Y60S, V93I, Y94F, V97A
# VL: B2 VL with T34A, F46L, A50G, F67S, S76N, A84T, S93I
# notes: as for B1
# B9: 75110_12H19A (antibody, V domains shown)
# VH: B2 VH with K43Q, Q53E, G56N, Y60H, F68L, A88G, E89V, Y95F, V97A, T113A
# VL: B2 VL with T20S, T34A, F46L, A50G, S53G, F67S
# notes: as for B1
# B10: 75110_07H07A (antibody, V domains shown)
# VH: B2 VH with L4V, N52K, Q53E, D54E, G56S
# VL: B2 VL with A13G, T34A, F46L, Y49F, A50G, F67S, E105Q
# notes: as for B1
# B11: 75110_10L22A (antibody, V domains shown)
# VH: EVQLVESGGGLVQPGGSLRLSCAASGFTFSSYDMHWVRQATGKGLEWVSTIGTAGDTYYPGSVKGRFTISRENAKNSLYLQMNGLRAGDTAVYYCARGNYFYYGVDVWGQGTTVTVSS
# VL: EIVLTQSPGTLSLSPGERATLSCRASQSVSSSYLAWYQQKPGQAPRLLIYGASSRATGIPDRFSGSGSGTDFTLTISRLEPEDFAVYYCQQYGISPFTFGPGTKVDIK
# notes: as for B1
# Target: T1, human CD4 on the surface of SKW3 cells or human PBMCs (human, UniProt P01730 26-458)
# T1 construct: whole, on cells; SKW3 CD4 knockout cells served as the negative cell line; also called hCD4; SKW3 WT
# Assay: FACS confirmation, supernatant on human PBMCs, anti-mouse Fc A647, CD4+ gate
# Procedure: (§1) FACS Confirmation screens were performed for primary screening positive hybridomas using human PBMCs in addition to SKW3/SKW3 CD4 KO cell lines. PBMCs were thawed and resuspended to 8E6/mL in FACS buffer. […] PBMCs were added to the 96 well plates (25 μL/well) and incubated at 4° C. for 30 minutes. […] Cells were washed twice before acquired by IQUE3 Flow Cytometer and analyzed with FORECYT software (Sartorius). Primary parameter used to assess confirmation was CD4 positive percent of viable cells. […] SKW3 gMFI binding was used as secondary parameter to assess confirmation.
row,Binder,"PBMCs, anti-mFc 647 CD4+ gate - RL1 Binding"
1,B1,274000
2,B2,319000
3,B3,321000
4,B4,181000
5,B5,264000
6,B6,346000
7,B7,287000
8,B8,304000
9,B9,244000
10,B10,234000
11,B11,283000

# Target: T1, human CD4 on the surface of SKW3 cells …
# Assay: FACS confirmation, supernatant on SKW3 WT cells, anti-human kappa FITC; background gMFI 2500
row,Binder,"SKW3 WT anti-hu Kappa FITC, gMFI"
1,B1,6160 gMFI
2,B2,7600 gMFI
3,B3,5930 gMFI
4,B4,5130 gMFI
5,B5,5360 gMFI
6,B6,6710 gMFI
7,B7,5880 gMFI
8,B8,5810 gMFI
9,B9,6550 gMFI
10,B10,8510 gMFI
11,B11,7020 gMFI

# Target: T1, human CD4 on the surface of SKW3 cells …
# Assay: FACS primary screen, non-clonal hybridoma supernatant, SKW3 vs SKW3 CD4 KO cells, anti-human kappa FITC
# Procedure: (§2) FACS cell binding. αCD4 antibody producing hybridomas were identified by cell surface CD4 binding using FACS. For primary screening SKW3 (human T-ALL) was used as the CD4 positive cell line and SKW3 CD4 knockout (KO) as the negative cell line, respectively. SKW3 KO cells were labeled with Tag-it Violet (BioLegend) at RT for 15 min. After removing extra dye by washing cells with FACS buffer (1% BSA/1 mM EDTA/0.05% NaN3 in PBS) equal number of SKW3 and labeled SKW3 CD4 KO cells were combined, washed, and resuspended in FACS buffer at 8E6 cells/6 mL. […] Cells (˜20K/15 μL/well) were added to the supernatant and incubated at 4° C. for 30 minutes. […] Cells were washed twice before acquired by IQUE3 Flow Cytometer and analyzed with FORECYT software (Sartorius). Positive wells were selected with the following criteria: Over 2-fold selective binding to SKW3 cell line relative to SKW3 CD4 KO with over 10% signal above background binding with anti-human Kappa. Hybridomas from primary screening positive wells were transferred to 96 well plates.
row,Binder,SKW3 WT vs KO anti-hKappa-FITC
1,B1,2.3 ratio
2,B2,2.8 ratio
3,B3,2.4 ratio
4,B4,1.5 ratio
5,B5,2 ratio
6,B6,1.5 ratio
7,B7,2.2 ratio
8,B8,2 ratio
9,B9,2.4 ratio
10,B10,2.3 ratio
11,B11,2.1 ratio

# Target: T1, human CD4 on the surface of SKW3 cells …
# Assay: FACS confirmation, supernatant on SKW3 WT cells, anti-mouse Fc A647; background gMFI 3300
# Procedure: as §1
row,Binder,"SKW3 WT anti-mFc 647, gMFI"
1,B1,22600 gMFI
2,B2,36000 gMFI
3,B3,32300 gMFI
4,B4,16300 gMFI
5,B5,18000 gMFI
6,B6,36700 gMFI
7,B7,24800 gMFI
8,B8,22300 gMFI
9,B9,22800 gMFI
10,B10,34300 gMFI
11,B11,27600 gMFI

# Target: T1, human CD4 on the surface of SKW3 cells …
# Assay: FACS binning on SKW3 cells; competitor OKT4a, anti-human A647 secondary (its signal read); background 5000, max binding 35000
# Procedure: (§3) αCD4 containing hybridoma supernatants were binned against three comparator antibodies by FACS using SKW3 cells, which endogenously express human CD4 protein. Briefly, SKW3 cells were incubated with saturated hybridoma supernatant for 30 minutes at 4° C.
row,Binder,OKT4a anti-hu A647 Secondary signal
1,B1,43400
2,B2,35900
3,B3,43700
4,B4,37400
5,B5,42000
6,B6,43100
7,B7,46600
8,B8,44600
9,B9,34400
10,B10,39400
11,B11,45900

# Target: T2, huCD4-HIS (human, UniProt P01730 26-390, limits assumed)
# T2 construct: not shown: HIS tag
# Assay: ELISA binning; competitor ibalizumab; 100 ng/mL huCD4-HIS, anti-HIS HRP detection; background 45, max binding 3000000
row,Binder,Ibalizumab ELISA binning signal
1,B1,1.95e+06
2,B2,663000
3,B3,1.26e+06
4,B4,2.57e+06
5,B5,2.2e+06
6,B6,1.13e+06
7,B7,1.76e+06
8,B8,1.99e+06
9,B9,1.74e+06
10,B10,2.11e+06
11,B11,1.88e+06

# Target: T1, human CD4 on the surface of SKW3 cells …
# Assay: FACS binning on SKW3 cells; competitor OKT4-Alexa Fluor 488 (its signal read); background 2163, max binding 8200
# Procedure: as §3
row,Binder,OKT4 A488 signal
1,B1,3170
2,B2,2280
3,B3,2140
4,B4,3120
5,B5,4020
6,B6,2760
7,B7,2700
8,B8,2990
9,B9,2620
10,B10,2060
11,B11,2850

# Target: T1, human CD4 on the surface of SKW3 cells …
# Assay: FACS primary screen, non-clonal hybridoma supernatant, SKW3 vs SKW3 CD4 KO cells, anti-mouse Fc A647
# Procedure: as §2
row,Binder,SKW3 WT vs KO anti-mFc-647
1,B1,6.7 ratio
2,B2,6.5 ratio
3,B3,7.5 ratio
4,B4,3.9 ratio
5,B5,4 ratio
6,B6,5 ratio
7,B7,5.4 ratio
8,B8,4.8 ratio
9,B9,5.2 ratio
10,B10,5.7 ratio
11,B11,3.4 ratio

# Target: T1, human CD4 on the surface of SKW3 cells …
# Assay: FACS confirmation, supernatant on human PBMCs, anti-mouse Fc A647
# Procedure: as §1
row,Binder,"PBMCs, anti-mFc 647 CD4+ Percent Bound of Viable"
1,B1,29%
2,B2,31%
3,B3,31%
4,B4,29%
5,B5,29%
6,B6,33%
7,B7,33%
8,B8,28%
9,B9,27%
10,B10,27%
11,B11,31%

# Target: T1, human CD4 on the surface of SKW3 cells …
# Assay: FACS binning on SKW3 cells; competitor RPA-T4-PE-Dazzle 594 (its signal read); background 783, max binding 15000
# Procedure: as §3
row,Binder,RPA-T4-PE-Dazzle 594 signal
1,B1,14900
2,B2,12300
3,B3,14700
4,B4,15900
5,B5,14800
6,B6,9800
7,B7,14700
8,B8,14800
9,B9,14600
10,B10,14900
11,B11,15000
